Three proteins from paper PMC4340967, “Histidine 352 (His^352) and Tryptophan 355 (Trp^355) Are Essential for Flax UGT74S1 Glucosylation Activity toward Secoisolariciresinol” (PLoS ONE, 2015) can be followed below.

Substrate in data set [1]: O=c1ccn([C@@H]2O[C@H](CO[P@@](=O)(O)O[P@@](=O)(O)O[C@H]3O[C@H](CO)[C@@H](O)[C@H](O)[C@H]3O)[C@@H](O)[C@H]2O)c(=O)[nH]1
Kind of data set: UPLC-MS assay of SMG formation, Lineweaver-Burk. The data set is classed as biochemical, Linum usitatissimum. As to conditions: 0.82-8.2 mM UDP-glucose, 280 µM SECO fixed, 1 mM NaCl, pH 8.0, 30°C, for SMG production. From the text:
(§1) UPLC-MS assay of SMG formation, Lineweaver-Burk on UGT74S1 (wild type, W)

Substrate in data set [2]: COc1cc(C[C@@H](CO)[C@H](CO)Cc2ccc(O)c(OC)c2)ccc1O
Description: UPLC-MS assay of SMG formation, Lineweaver-Burk. The data set is classed as biochemical, Linum usitatissimum. As to conditions: 70-1650 µM SECO, 1.64 mM UDP-glucose fixed, 1 mM NaCl, pH 8.0, 30°C, for SMG production.
Text: as §1

B1: UGT74S1 (wild type, W) (Linum usitatissimum) (protein)
chain: MAGDEREKAHCLVVPAAAQGHFTPLLQFSKRLIPKRIRVTLALTRFIHSTMTVTAQSGIHIDTISDGFDHSGLILQDPEHYSQTFRRVGSETLTDLIRKQSESRHPVHCIIYDASMPWFLDVAKRFGIVGAAFLTQSCAVNAIYYHLREGTIKRPVVSDPAAGTLVIDGLPPLEVSDLPSFIWDDLHTEFLAAHLRQFSNDGADWVFCNTVYQLELEAVDWLTKQWLINFRTIGPTIPSFYLDKQIPDDKDYDISIFNPQNQTCMNWLQSKPDGSVVYVSFGSLARLSPQQTEELYFGLKNSNHYFLWVVRESEVAKLPKEEYLSGEKGLVVSWCSQLQVLASGKVGCFVTHCGWNSTLEALSLGVPMVAMPECGDQLTNAKFIKDVWKTGVRAEADDGKGIMWGMIKREVIERCIREVMEGEETRRNADKWGKIIKEAVVEGGSSDKNTEDFATSLINFAETFQFSC
B1: in data set [1], the Michaelis-Menten constant (Km) (usually the substrate concentration at which the rate is half of its maximum) was found to be 1103 µM; the kcat (usually the maximal rate divided by the concentration of active sites) was found to be 0.135 s⁻¹; the kcat/Km (as a rule, the turnover number divided by the Michaelis constant) was 122 M⁻¹ s⁻¹. Besides, in data set [2], the Michaelis-Menten constant (Km) was 717 µM, the kcat turned out to be 0.23 s⁻¹ and the catalytic efficiency (kcat/Km) stood at 321 M⁻¹ s⁻¹.

B2: UGT74S1 (wild type, W) (Linum usitatissimum; Q337A) (protein)
chain: MAGDEREKAHCLVVPAAAQGHFTPLLQFSKRLIPKRIRVTLALTRFIHSTMTVTAQSGIHIDTISDGFDHSGLILQDPEHYSQTFRRVGSETLTDLIRKQSESRHPVHCIIYDASMPWFLDVAKRFGIVGAAFLTQSCAVNAIYYHLREGTIKRPVVSDPAAGTLVIDGLPPLEVSDLPSFIWDDLHTEFLAAHLRQFSNDGADWVFCNTVYQLELEAVDWLTKQWLINFRTIGPTIPSFYLDKQIPDDKDYDISIFNPQNQTCMNWLQSKPDGSVVYVSFGSLARLSPQQTEELYFGLKNSNHYFLWVVRESEVAKLPKEEYLSGEKGLVVSWCSALQVLASGKVGCFVTHCGWNSTLEALSLGVPMVAMPECGDQLTNAKFIKDVWKTGVRAEADDGKGIMWGMIKREVIERCIREVMEGEETRRNADKWGKIIKEAVVEGGSSDKNTEDFATSLINFAETFQFSC
On to B2, for which, in data set [1], the Michaelis constant (Km) was determined as 27610 µM, the turnover number (kcat) is 0.547 s⁻¹ and the kcat/Km stood at 19.8 M⁻¹ s⁻¹. Further, in data set [2], the Km is 2716 µM, the kcat was determined as 0.0077 s⁻¹ and the kcat/Km is 2.85 M⁻¹ s⁻¹.

B3: UGT74S1 (wild type, W) (Linum usitatissimum; C335A) (protein)
chain: MAGDEREKAHCLVVPAAAQGHFTPLLQFSKRLIPKRIRVTLALTRFIHSTMTVTAQSGIHIDTISDGFDHSGLILQDPEHYSQTFRRVGSETLTDLIRKQSESRHPVHCIIYDASMPWFLDVAKRFGIVGAAFLTQSCAVNAIYYHLREGTIKRPVVSDPAAGTLVIDGLPPLEVSDLPSFIWDDLHTEFLAAHLRQFSNDGADWVFCNTVYQLELEAVDWLTKQWLINFRTIGPTIPSFYLDKQIPDDKDYDISIFNPQNQTCMNWLQSKPDGSVVYVSFGSLARLSPQQTEELYFGLKNSNHYFLWVVRESEVAKLPKEEYLSGEKGLVVSWASQLQVLASGKVGCFVTHCGWNSTLEALSLGVPMVAMPECGDQLTNAKFIKDVWKTGVRAEADDGKGIMWGMIKREVIERCIREVMEGEETRRNADKWGKIIKEAVVEGGSSDKNTEDFATSLINFAETFQFSC
Take B3: in data set [1], the Michaelis constant (Km) was 3443 µM, the kcat is 0.256 s⁻¹ and the kcat/Km amounted to 74.3 M⁻¹ s⁻¹. In addition, in data set [2], the Michaelis constant (Km) is 1538 µM, the kcat came out at 0.0494 s⁻¹ and the specificity constant (kcat/Km) amounted to 32.1 M⁻¹ s⁻¹.
